This is an account of results in patent US20200392472.

Some results are limits rather than exact numbers.

The data set has as its system T1, GeoCas9 (Geobacillus stearothermophilus).
T1 sequence: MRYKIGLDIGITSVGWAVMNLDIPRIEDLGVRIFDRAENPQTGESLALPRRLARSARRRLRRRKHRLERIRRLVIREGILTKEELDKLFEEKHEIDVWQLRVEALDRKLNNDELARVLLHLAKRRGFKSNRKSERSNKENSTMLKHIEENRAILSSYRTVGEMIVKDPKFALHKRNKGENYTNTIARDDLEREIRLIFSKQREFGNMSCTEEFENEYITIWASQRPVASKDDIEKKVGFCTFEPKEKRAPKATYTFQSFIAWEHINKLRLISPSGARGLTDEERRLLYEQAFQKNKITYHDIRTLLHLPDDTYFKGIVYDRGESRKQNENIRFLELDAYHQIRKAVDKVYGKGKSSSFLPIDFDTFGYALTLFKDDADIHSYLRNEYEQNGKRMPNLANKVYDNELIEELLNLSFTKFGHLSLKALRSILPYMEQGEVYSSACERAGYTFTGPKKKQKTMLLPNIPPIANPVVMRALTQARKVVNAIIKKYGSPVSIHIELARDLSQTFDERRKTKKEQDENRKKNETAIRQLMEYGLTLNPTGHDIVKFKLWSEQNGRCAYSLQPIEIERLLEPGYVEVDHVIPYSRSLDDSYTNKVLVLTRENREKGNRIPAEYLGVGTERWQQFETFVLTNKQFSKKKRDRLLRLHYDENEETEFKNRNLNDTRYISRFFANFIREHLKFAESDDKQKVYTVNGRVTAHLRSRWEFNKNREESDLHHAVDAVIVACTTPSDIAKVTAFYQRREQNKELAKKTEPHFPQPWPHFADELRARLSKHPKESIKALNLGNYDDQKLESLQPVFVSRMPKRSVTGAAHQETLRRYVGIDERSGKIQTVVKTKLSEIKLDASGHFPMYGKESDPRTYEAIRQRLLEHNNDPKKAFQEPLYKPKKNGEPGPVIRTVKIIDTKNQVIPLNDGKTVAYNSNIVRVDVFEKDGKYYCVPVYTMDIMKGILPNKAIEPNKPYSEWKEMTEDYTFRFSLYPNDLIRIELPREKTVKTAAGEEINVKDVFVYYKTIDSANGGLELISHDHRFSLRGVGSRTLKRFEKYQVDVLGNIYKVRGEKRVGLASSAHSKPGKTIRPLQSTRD
Description: cleavage_in_vitro. Particulars: 21-22 nt spacer cleaves more than 5-fold faster than 20 nt; 37 C; exact substrate PAM not given.

In the case of “GeoCas9 sgRNA with 20 nt spacer ; radiolabeled target DNA with CRAA PAM”, the cleavage rate fold increase is greater than 5 fold.
